This note sets out measurements from PMC4894720.

The target in data set [1] is T1, PPARδ;RXRα (Homo sapiens;Homo sapiens?, UniProt Q03181;P19793 1-441;1-462, |). Briefly: EMSA. For orientation: Mobility shift assays separate free from complexed probe on a gel.
The target of data set [2] is T1, PPARδ;RXRα. Briefly: competition.

T1 sequence (Q03181 whole entry, stated change not applied, chain 1 of 2): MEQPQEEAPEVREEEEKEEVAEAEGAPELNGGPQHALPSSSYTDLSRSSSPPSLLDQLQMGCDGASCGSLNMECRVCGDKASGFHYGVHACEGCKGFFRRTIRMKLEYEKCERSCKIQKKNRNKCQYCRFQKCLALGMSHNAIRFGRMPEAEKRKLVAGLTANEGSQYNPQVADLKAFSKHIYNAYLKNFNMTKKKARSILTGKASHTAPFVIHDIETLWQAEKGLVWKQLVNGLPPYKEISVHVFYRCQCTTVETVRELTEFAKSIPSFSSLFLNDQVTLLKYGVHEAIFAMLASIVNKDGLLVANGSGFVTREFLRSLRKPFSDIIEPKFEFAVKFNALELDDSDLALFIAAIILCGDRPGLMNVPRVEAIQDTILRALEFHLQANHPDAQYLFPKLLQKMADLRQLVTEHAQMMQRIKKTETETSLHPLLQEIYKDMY
T1 sequence (P19793 whole entry, stated change not applied, chain 2 of 2): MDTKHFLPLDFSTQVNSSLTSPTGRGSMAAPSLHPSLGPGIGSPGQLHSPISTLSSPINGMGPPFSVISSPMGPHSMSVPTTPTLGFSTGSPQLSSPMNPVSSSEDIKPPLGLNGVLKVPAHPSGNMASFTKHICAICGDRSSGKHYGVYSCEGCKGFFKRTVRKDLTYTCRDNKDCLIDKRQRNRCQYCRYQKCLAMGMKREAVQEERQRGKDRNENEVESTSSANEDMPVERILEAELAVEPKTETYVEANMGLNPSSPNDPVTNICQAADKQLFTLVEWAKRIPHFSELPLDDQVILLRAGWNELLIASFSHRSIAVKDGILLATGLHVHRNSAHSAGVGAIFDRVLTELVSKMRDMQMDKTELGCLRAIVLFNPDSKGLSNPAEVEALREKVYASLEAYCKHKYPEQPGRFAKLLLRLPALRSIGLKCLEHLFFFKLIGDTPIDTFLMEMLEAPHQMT

B1: LDLR-PPRE(WT) biotin probe (dsDNA)
DNA 1: TCTCTGTGGCTTAGGGGTTCAAGTTCAACTGTGAAAGCCC
DNA 2: GGGCTTTCACAGTTGAACTTGAACCCCTAAGCCACAGAGA
On to B1, for which, in the data set with PPARδ;RXRα [1], the binding result is given as “binds”.

B2: LDLR-PPRE(WT) unlabeled competitor (dsDNA)
DNA 1: TCTCTGTGGCTTAGGGGTTCAAGTTCAACTGTGAAAGCCC
DNA 2: GGGCTTTCACAGTTGAACTTGAACCCCTAAGCCACAGAGA
For B2, the binding result with PPARδ;RXRα [2] is recorded as “binds”.
